{"source": "paper doi:10.1101/2020.05.12.090381", "about": "(bioRxiv, 2020)", "proteins": {"B1": {"name": "E. coli inducible lysine decarboxylase LdcI, wild type (enzyme, UniProt P0A9H3 1-715, looked up)", "chain": "MNVIAILNHMGVYFKEEPIRELHRALERLNFQIVYPNDRDDLLKLIENNARLCGVIFDWDKYNLELCEEISKMNENLPLYAFANTYSTLDVSLNDLRLQISFFEYALGAAEDIANKIKQTTDEYINTILPPLTKALFKYVREGKYTFCTPGHMGGTAFQKSPVGSLFYDFFGPNTMKSDISISVSELGSLLDHSGPHKEAEQYIARVFNADRSYMVTNGTSTANKIVGMYSAPAGSTILIDRNCHKSLTHLMMMSDVTPIYFRPTRNAYGILGGIPQSEFQHATIAKRVKETPNATWPVHAVITNSTYDGLLYNTDFIKKTLDVKSIHFDSAWVPYTNFSPIYEGKCGMSGGRVEGKVIYETQSTHKLLAAFSQASMIHVKGDVNEETFNEAYMMHTTTSPHYGIVASTETAAAMMKGNAGKRLINGSIERAIKFRKEIKRLRTESDGWFFDVWQPDHIDTTECWPLRSDSTWHGFKNIDNEHMYLDPIKVTLLTPGMEKDGTMSDFGIPASIVAKYLDEHGIVVEKTGPYNLLFLFSIGIDKTKALSLLRALTDFKRAFDLNLRVKNMLPSLYREDPEFYENMRIQELAQNIHKLIVHHNLPDLMYRAFEVLPTMVMTPYAAFQKELHGMTEEVYLDEMVGRINANMILPYPPGVPLVMPGEMITEESRPVLEFLQMLCEIGAHYPGFETDIHGAYRQADGRYTVKVLKEESKK"}}, "target": "the molecule itself", "assay": "cryo-EM structure"}
{"protein": "B1", "values": [{"measurement": "stoichiometry N", "result": 10}]}
